Laboratory results: patent US20140314667A1, “METHODS OF TREATING EPIDERMAL GROWTH FACTOR DELETION MUTANT VIII RELATED DISORDERS” (AMGEN INC., priority 2011, published 2014)
Substitutions are numbered along the chain they refer to.

B1: 170: XenoMax derived anti-EGFRvIII antibody, SEQ ID NO: 4/20 (antibody, listed as Homo sapiens, V domains shown)
VH: QVQLQQSGPGLVKPSQTLSLTCAISGDSVSSNNAAWNWIRQSPARGLEWLGRTYYRSKWYNDYVVSVKSRITINPDTSKNQFSLQLNSVTPEDTAVYYCVRATAFDYWGQGTLVTVSS
VL: AIVLTQTPLSSPVTLGQPASISCRSSQSLVHRDGNTYLSWLQQRPGQPPRLLIYKISNRFSGVPDRFSGSGAGTDFTLKISRVEPDDVGVYYCMHTTQLPWTFGQGTKVEIK
B2: 150: XenoMax derived anti-EGFRvIII antibody, SEQ ID NO: 5/21 (antibody, listed as Homo sapiens, V domains shown)
VH: QVQLQQSGPGLVKPSQTLSLTCAISGDSVSSYSSAWNWIRQSPSRGLEWLGRAYHRSRWYYEYAVSVKSRINITPDTSKNQFSLQLNSVTPEDTAVYYCARGSRFDYWGQGTLVTVSS
VL: B1 VL with A1D, L4M, P85A, D86E, V90I, Y92F, L99F, K108R
B3: 211: XenoMax derived anti-EGFRvIII antibody, SEQ ID NO: 12/28 (antibody, listed as Homo sapiens, V domains shown)
VH: QVQLVESGGGVVQPGRSLRLSCVASGFTLSSYGMHWVRQAPGKGLEWVAVTSYDGSKKDYADSAKGRFTISRDNSKNTLYLQMNSLRAEDTAVYYCVSEGYCSSSSCYKYYYYGMDVWGQGTTVTVSS
VL: DIVMTQSPLSLPVTPGEPASISCRSSQSLLYRNGNNYLDWYLQRPGQSPQLLIYLGSNRASGVPDRFSGSGSGTDFTLKISRVEAEDVGVYYCMQALQTPRTFGQGTKVEIK

Columns and labels:
[1] = biological target: T1, EGFRvIII receptor in NR6 M cells (Homo sapiens, UniProt P00533, DELINS30-297G); experiment: Internalization of EGFRvIII receptor by recombinant mAbs (FACS); assay type: cell-based; settings: 0.25 μg/ml antibody, 1 hr
T1 construct: NR6 M cells stably expressing full length EGFRvIII; expressed in transfected cells; host or cells: NR6 cells (NR6 M)
Method: XenoMax derived IgG1 recombinant antibodies were expressed, purified and quantitated as described previously. Antibodies were further assayed for their ability to internalize the EGFRvIII receptor in NR6 M cells. […] The cells were washed with cold 10% FCS in PBS and secondary antibody (SS Alexa antihuman IgG Fab) at 3 μg/ml Fab was added and incubated for 7 mins on ice. The cells were washed with cold 10% FCS in PBS once and then resuspended in cold media. Next, two sets of the triplicate were incubated at 37° C. and the remaining set was incubated at 4° C. for 1 hr. After that the cells incubated at 4° C. and one set of the cells incubated at 37° C. were treated with glutathione (as previously mentioned) for 1 hr on ice. Then the cells were washed and resuspended in 100 μl of cold 1% FCS in PBS and analyzed by FACS. The % internalization was calculated from the geometric mean obtained from the FACS analysis [(mean at 37° C. with glutathione−mean at 4° C. with glutathione)/(mean at 37° C. without glutathione−mean at 4 C with glutathione)].

[2] = biological target: T2, EGFRvIII receptor on NR6 M cells (Homo sapiens, UniProt P00533, DELINS30-297G); experiment: Internalization assay (FMAT, glutathione) of B cell culture supernatants; assay type: cell-based
T2 construct: NR6 M cells stably expressing full length EGFRvIII; expressed in transfected cells; host or cells: NR6 cells (NR6 M)
Method: The top 60 native binding B cell culture supernatants were further assayed for their ability to internalize the receptor. NR6 M cells were seeded at 8000 cells/well into 96 well FMAT plates and incubated overnight. Media was removed and 10-15 μl B-Cell culture supernatant in a total volume of 30 μl media, in duplicate was added. Next, 15 μl of secondary antibody (SS Alexa 647 anti-human IgG Fab at 1.5 μg/ml final concentration) was added and the mixture was incubated on ice for 1 hr. An irrelevant B-Cell Culture supernatant was used to see the effect of the culture media. Human anti-EGFRvIII mAb 13.2.1 was used as a positive control starting at 1 μg/ml (final concentration) and negative control was PK 16.3.1 (human anti-KLH IgG2 antibody) at the same concentration. After incubation, the cells were washed with cold PBS, 50 μl media was added to all of the wells, one of the duplicates were incubated at 37° C. for 30 mins while the other duplicate remained on ice. After the incubations media was removed, 100 ul of cold 50 mM glutathione was added to the set incubated at 37° C. and 100 μl of cold media added to the other set, both sets were then left on ice for 1 hr. The cells were then washed with 100 μl cold PBS and then fixed with 1% paraformaldehyde and read in FMAT. The results were expressed as % internalized, calculated as total fluorescence in the presence of glutathione/total fluorescence in the absence of glutathione×100.

Molecule | FACS Geometric mean With glutathione 4° C. [1] | FACS Geometric mean With glutathione 37° C. [1] | % internalized, (glut+/glut−) × 100 ([2]; 37° C. for 30 mins) | With glutathione FL1xcount ([2]; 37° C. for 30 mins, 50 mM glutathione) | No glutathione FL1xcount ([2]; kept on ice, no glutathione)
B1 | 4.67 | 7.75 | 52.8% | 1236 | 2342
B2 | 4.66 | 7.78 |  |  | 
B3 | 4.78 | 8.23 |  |  | 
